The RNAGym collection of RNA variant scans (doi:10.7554/elife.90254)

B1: OR4K15 (parent)
chain: GUUAACGGUCAUAGGCCAUGGAAACUAGGAGCACCAUUUCGCUGCCAGUGAAGAAAUGAACAAAGAAAAUCUGGGCCAGGCAGGCAUCAAAAGAAAUAGUCUUGCGCUCAACCAGAAAGUCUGUAAUCAUUUUAAGGGUA

Variants of: B1
Experiment: self-cleavage, relative activity (ratio to wild type); higher = more cleavage; in vitro, sequencing; the parent is a self-cleaving ribozyme

| Variant | self-cleavage |
| --- | --- |
| A22G A94G | 0.92 |
| A66G A126G | 1.07 |
| A55G A64G | 0.88 |
| C35U U108A | 0.02 |
| A36G | 1.39 |
| A78U A98G | 0.06 |
| U9C A22G | 1.21 |
| C42U A126G | 0.91 |
| A33G A91G | 0.29 |
| A68G A91G | 1.18 |
| U2C A117U | 1.05 |
| G14A A55G | 1.58 |
| A55G A126G | 0.33 |
| A36C A111G | 0.02 |
| U2C A111G | 0.04 |
| U37G A89G | 1.75 |
| A11G C61G | 1 |
| U49C | 1.12 |
| A96G A110G | 0.12 |
| U120A U130A | 0.54 |
| U57G U127C | 1.33 |

| Variant | self-cleavage |
| --- | --- |
| U2C U12G | 0.39 |
| A22U U87C | 0.88 |
| A11G A52C | 0.82 |
| G7C A47U | 1.4 |
| A110G A126G | 0.1 |
| U3C A94G | 2.02 |
| A96C A118U | 0.32 |
| U43C U49C | 1.22 |
| U43A U132A | 1.41 |
| A62G A110C | 0.34 |
| U43C C85U | 1.32 |
| A96G U108C | 0.01 |
| A36G A118G | 1.47 |
| A36G A118U | 0.73 |
| U12C U49G | 0.74 |
| U3A U57C | 1.14 |
| U26A A59U | 1.22 |
| U43C A126C | 1.95 |
| A64G U103A | 0.55 |
| C76A A117G | 0.18 |
| A5G U103C | 0.27 |

| Variant | self-cleavage |
| --- | --- |
| G123U U130C | 0.44 |
| G41A A92G | 0.97 |
| U108A A140G | 0 |
| A78G U130C | 0.3 |
| A47U G99A | 0.23 |
| A22C A94U | 2.06 |
| A91U A94U | 1.87 |
| A91U U124A | 0.84 |
| A33G U72C | 0.12 |
| A11U U133C | 1.36 |
| A56U C128A | 1.6 |
| A90G U100A | 0.31 |
| A54U U139C | 1.45 |
| A60U U120C | 0.7 |
| U12A A91U | 1.64 |
| A59G A69G | 1.26 |
| A4U U127C | 1.34 |
| A33U A60G | 1.38 |
| C17U A54G | 1.02 |
| A114G A116U | 0.05 |
| A89C G136A | 1.27 |

| Variant | self-cleavage |
| --- | --- |
| A56G A117G | 1.3 |
| U57C A118U | 0.37 |
| G73A A82G | 0.22 |
| G7A U131C | 1.36 |
| G1U A69U | 1.22 |
| U49C A62G | 1.57 |
| A67G A116G | 0.71 |
| A68G U100A | 0.24 |
| C35U U70A | 0.97 |
| U122A A125U | 2.05 |
| A96G U102G | 1.08 |
| A62U A64G | 1.46 |
| A5C A36U | 1.59 |
| U49C U57A | 1.03 |
| A5U U37G | 1 |
| U3A A36U | 1.61 |
| G84A A96G | 2.43 |
| U87C A111C | 0.02 |
| U12A A36G | 1.05 |
| C113A A140G | 0 |
| U19C G44A | 0.78 |
